Experimental data taken from patent US20190202925A1.

What was measured:
[1] = molecular target: human TNFR2 on cells (human) (UniProt P20333); assay: cell-based or functional assay
[2] = molecular target: monomeric human TNFR2 extracellular domain (human) (UniProt P20333); assay: BLI (Octet Red 96), Human TNFR2 Kd (1-1)
monomeric human TNFR2 extracellular domain (human), sequence (P20333 23-257): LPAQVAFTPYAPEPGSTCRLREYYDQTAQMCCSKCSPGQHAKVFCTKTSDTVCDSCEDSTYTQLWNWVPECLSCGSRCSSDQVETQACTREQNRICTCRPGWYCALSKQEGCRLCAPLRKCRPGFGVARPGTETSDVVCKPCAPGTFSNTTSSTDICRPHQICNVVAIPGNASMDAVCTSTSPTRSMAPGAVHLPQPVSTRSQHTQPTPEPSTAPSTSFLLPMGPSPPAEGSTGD

human TNFR2 on cells (human), sequence (P20333 23-461): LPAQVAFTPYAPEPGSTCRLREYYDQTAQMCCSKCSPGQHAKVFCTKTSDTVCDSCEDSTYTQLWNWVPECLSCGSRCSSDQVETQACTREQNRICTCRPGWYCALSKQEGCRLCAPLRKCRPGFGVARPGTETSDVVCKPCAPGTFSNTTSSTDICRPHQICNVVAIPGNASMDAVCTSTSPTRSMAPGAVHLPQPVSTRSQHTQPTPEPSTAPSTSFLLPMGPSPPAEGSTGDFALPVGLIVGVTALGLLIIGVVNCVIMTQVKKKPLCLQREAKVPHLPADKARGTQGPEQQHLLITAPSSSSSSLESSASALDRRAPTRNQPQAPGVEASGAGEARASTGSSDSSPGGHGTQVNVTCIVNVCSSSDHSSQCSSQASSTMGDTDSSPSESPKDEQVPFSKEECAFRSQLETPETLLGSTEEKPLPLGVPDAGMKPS

Row | Binder | IC50 (µg/mL) (with pre-incubation); rescue of Jurkat H6 cells from 2 ng/mL TNFα, luminescence [1] | IC50 (µg/mL) (without pre-incubation); rescue of Jurkat H6 cells from 2 ng/mL TNFα, luminescence [1] | Kd [2]
1 | SBT-004 (antibody, V domains shown) VH: EVQLQQSGPEVGRPGSSVKISCKASGYTFTDYIMHWVKQSPGQGLEWIGWVDPEYGSTDYAEKFKKKATLTADTSSNTAYIQLSSLTSEDTATYFCARDDGSYSPFDYWGQGVMVTVSS VL: DIQMTQSPPSLSASLGDKVTITCQASQNINKYIAWYQQKPGKAPRLLIRYTSTLESGTPSRFSGSGSGRDYSFSISNVESEDIASYYCLQYVNLLTFGAGTKLEIK | 0.09 µg/mL | 0.1 µg/mL | –
2 | chimeric SBT-004 Fc null (antibody, part only; not given: light chain and Fc null constant region, V domains shown, part only) VH: EVQLQQSGPEVGRPGSSVKISCKASGYTFTDYIMHWVKQSPGQGLEWIGWVDPEYGSTDYAEKFKKKATLTADTSSNTAYIQLSSLTSEDTATYFCARDDGSYSPFDYWGQGVMVTVSS | – | – | 5 nM
